Results reported in patent publication US20220356258A1 (Boehringer Ingelheim, published 2022).

T1: IL-36 receptor (IL-36R) (UniProt Q9HB29 20-335, limits assumed)
T1 sequence (looked up): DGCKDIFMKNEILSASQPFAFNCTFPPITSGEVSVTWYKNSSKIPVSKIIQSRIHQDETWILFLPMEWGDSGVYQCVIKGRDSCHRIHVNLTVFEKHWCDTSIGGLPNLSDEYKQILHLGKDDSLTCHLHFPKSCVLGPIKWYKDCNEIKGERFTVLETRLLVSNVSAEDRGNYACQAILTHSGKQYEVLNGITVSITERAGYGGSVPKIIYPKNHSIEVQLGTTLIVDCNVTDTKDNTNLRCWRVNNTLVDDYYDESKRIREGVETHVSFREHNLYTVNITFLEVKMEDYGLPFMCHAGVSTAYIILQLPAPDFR

B1: Spesolimab AP4 fraction (CEX acidic peak fraction AP4) (antibody, human IgG1, kappa, L234A L235A)
heavy: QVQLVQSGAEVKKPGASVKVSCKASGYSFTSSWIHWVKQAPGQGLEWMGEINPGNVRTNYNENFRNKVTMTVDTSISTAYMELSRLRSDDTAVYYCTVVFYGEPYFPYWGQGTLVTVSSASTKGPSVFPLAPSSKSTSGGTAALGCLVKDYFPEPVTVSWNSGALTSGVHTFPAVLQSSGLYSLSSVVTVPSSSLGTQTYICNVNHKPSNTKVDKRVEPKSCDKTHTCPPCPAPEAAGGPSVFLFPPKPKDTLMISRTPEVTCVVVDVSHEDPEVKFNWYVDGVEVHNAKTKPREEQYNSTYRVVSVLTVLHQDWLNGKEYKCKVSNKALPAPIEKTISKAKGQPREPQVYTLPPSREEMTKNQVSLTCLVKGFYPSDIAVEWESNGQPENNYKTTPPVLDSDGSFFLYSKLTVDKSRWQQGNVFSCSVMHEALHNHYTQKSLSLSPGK
light: QIVLTQSPGTLSLSPGERATMTCTASSSVSSSYFHWYQQKPGQAPRLWIYRTSRLASGVPDRFSGSGSGTDFTLTISRLEPEDAATYYCHQFHRSPLTFGAGTKLEIKRTVAAPSVFIFPPSDEQLKSGTASVVCLLNNFYPREAKVQWKVDNALQSGNSQESVTEQDSKDSTYSLSSTLTLSKADYEKHKVYACEVTHQGLSSPVTKSFNRGEC
notes: Humanized IgG1 anti-IL-36R antibody from CHO-DG44 cells; Cation exchange fraction, RT 16.0-18.7 min, 0.5% of total CEX area; also called most acidic fraction AP4
B2: Spesolimab AP1c fraction (CEX acidic peak fraction AP1c) (antibody, human IgG1, kappa, L234A L235A)
heavy: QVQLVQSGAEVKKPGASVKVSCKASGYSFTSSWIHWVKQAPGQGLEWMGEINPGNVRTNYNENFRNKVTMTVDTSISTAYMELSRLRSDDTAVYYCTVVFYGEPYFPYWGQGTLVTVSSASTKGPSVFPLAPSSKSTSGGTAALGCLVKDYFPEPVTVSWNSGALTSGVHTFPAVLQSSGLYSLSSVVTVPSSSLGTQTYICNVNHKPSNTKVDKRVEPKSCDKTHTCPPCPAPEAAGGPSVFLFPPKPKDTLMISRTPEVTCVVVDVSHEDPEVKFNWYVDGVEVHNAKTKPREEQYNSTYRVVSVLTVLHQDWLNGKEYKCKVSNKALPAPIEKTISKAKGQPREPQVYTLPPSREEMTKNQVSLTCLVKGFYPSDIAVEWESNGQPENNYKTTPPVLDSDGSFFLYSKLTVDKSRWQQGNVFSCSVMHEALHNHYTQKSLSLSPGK
light: B1 light
notes: IgG1; Cation exchange fraction, RT 24.1-26.0 min, 2.2% of total CEX area
B3: Spesolimab AP1a fraction (CEX acidic peak fraction AP1a) (antibody, human IgG1, kappa, L234A L235A)
heavy: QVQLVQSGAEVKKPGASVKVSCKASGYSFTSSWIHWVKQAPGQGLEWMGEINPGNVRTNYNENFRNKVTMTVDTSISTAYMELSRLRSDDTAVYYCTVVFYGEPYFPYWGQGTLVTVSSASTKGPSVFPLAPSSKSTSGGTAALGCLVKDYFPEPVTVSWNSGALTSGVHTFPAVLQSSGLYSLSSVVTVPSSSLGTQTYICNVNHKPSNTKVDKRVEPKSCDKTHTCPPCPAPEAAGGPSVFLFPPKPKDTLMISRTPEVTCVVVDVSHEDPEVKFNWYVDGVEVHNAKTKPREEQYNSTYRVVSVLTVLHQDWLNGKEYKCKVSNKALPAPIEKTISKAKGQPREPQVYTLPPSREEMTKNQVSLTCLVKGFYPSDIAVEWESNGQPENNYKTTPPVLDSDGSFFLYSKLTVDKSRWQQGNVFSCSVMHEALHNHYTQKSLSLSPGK
light: B1 light
notes: IgG1; Cation exchange fraction, RT 27.3-28.2 min, 13.6% of total CEX area
B4: Spesolimab BP1 fraction (CEX basic peak fraction BP1) (antibody, human IgG1, kappa, L234A L235A)
heavy: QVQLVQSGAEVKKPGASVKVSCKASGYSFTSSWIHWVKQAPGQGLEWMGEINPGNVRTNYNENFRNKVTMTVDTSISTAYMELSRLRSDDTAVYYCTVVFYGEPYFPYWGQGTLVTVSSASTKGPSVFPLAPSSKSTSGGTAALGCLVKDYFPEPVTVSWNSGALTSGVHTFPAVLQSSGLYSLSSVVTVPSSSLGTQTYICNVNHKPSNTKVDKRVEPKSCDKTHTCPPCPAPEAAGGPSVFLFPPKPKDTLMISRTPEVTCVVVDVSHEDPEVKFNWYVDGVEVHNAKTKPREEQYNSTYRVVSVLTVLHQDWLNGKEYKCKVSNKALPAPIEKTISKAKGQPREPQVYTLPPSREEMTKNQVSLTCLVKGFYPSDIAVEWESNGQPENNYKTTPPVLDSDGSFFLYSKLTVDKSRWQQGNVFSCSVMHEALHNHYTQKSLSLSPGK
light: B1 light
notes: IgG1; Cation exchange fraction, RT 30.2-31.7 min, 3.75% of total CEX area
B5: Spesolimab MP fraction (CEX main peak fraction) (antibody, human IgG1, kappa, L234A L235A)
heavy: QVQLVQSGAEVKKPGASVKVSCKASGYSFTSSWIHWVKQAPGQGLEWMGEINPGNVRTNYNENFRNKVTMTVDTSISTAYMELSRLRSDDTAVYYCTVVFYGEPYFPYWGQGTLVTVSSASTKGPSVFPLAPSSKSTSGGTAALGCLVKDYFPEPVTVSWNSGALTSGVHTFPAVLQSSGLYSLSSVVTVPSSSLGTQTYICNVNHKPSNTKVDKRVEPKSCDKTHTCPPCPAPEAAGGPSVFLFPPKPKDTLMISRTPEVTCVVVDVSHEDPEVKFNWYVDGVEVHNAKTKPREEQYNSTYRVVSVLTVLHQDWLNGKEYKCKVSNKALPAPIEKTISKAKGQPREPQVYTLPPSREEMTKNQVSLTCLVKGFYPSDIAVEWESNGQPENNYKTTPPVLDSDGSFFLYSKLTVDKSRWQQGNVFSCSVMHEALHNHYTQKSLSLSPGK
light: B1 light
notes: IgG1
B6: Spesolimab AP3a fraction (CEX acidic peak fraction AP3a) (antibody, human IgG1, kappa, L234A L235A)
heavy: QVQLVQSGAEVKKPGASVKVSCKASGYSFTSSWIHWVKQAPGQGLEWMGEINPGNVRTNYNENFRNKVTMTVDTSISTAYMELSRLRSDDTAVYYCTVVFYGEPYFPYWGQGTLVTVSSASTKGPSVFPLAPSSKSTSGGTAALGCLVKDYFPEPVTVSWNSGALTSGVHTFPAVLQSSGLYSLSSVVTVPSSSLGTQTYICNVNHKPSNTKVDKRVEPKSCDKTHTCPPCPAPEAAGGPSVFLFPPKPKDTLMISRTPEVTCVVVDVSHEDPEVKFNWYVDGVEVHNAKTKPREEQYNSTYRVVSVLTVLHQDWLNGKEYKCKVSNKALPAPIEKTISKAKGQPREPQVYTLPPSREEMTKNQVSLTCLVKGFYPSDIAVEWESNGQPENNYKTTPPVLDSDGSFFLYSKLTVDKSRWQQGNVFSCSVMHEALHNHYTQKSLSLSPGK
light: B1 light
notes: IgG1; Cation exchange fraction, RT 20.6-22.7 min, 2.8% of total CEX area
B7: Spesolimab AP3b fraction (CEX acidic peak fraction AP3b) (antibody, human IgG1, kappa, L234A L235A)
heavy: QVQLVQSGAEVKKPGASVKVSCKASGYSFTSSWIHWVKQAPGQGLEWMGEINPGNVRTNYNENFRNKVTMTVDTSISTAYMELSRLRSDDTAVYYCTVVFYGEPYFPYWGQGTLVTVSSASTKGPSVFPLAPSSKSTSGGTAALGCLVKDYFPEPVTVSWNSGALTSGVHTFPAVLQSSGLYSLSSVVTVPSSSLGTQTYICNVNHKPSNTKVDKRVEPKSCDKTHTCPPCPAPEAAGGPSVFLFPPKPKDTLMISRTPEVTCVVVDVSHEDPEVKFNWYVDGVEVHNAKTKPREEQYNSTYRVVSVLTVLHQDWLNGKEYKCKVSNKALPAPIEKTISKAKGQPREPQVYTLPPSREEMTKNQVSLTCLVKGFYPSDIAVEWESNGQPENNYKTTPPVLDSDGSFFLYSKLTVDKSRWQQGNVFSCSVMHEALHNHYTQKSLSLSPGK
light: B1 light
notes: IgG1; Cation exchange fraction, RT 18.7-20.6 min, 0.8% of total CEX area
B8: Spesolimab CMC2 source (Drug Substance source material, unfractionated) (antibody, human IgG1, kappa, L234A L235A)
heavy: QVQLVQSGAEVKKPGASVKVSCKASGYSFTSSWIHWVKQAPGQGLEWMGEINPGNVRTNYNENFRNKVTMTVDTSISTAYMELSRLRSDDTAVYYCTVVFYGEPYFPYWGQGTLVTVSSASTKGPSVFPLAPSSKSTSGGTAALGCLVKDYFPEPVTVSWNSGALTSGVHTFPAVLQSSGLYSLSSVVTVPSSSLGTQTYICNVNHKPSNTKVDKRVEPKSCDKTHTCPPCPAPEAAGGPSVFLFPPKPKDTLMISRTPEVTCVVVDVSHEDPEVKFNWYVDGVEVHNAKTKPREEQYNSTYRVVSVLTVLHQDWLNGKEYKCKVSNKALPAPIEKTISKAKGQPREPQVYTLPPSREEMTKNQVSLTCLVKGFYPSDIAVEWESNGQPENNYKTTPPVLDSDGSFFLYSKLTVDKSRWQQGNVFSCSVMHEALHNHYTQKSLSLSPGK
light: B1 light
notes: Humanized monoclonal IgG1 anti-IL-36R antibody, CAS 2097104-58-8, produced in CHO-DG44 cells; This is the unfractionated material from which the CEX fractions were collected
B9: Spesolimab AP1b fraction (CEX acidic peak fraction AP1b) (antibody, human IgG1, kappa, L234A L235A)
heavy: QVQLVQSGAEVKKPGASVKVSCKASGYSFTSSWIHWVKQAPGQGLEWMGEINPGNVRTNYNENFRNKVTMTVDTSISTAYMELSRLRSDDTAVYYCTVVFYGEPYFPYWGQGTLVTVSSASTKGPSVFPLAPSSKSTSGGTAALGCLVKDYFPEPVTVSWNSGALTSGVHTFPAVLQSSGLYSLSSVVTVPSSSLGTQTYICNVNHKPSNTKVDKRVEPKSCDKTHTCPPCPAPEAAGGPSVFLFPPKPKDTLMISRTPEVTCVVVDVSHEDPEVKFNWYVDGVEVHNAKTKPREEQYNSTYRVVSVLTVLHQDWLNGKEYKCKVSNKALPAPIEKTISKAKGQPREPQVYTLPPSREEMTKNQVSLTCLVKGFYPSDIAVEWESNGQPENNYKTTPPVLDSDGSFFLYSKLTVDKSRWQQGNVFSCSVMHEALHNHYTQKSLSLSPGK
light: B1 light
notes: IgG1; Cation exchange fraction, RT 26.0-27.3 min, 7.6% of total CEX area
B10: Spesolimab BP2 fraction (CEX basic peak fraction BP2) (antibody, human IgG1, kappa, L234A L235A)
heavy: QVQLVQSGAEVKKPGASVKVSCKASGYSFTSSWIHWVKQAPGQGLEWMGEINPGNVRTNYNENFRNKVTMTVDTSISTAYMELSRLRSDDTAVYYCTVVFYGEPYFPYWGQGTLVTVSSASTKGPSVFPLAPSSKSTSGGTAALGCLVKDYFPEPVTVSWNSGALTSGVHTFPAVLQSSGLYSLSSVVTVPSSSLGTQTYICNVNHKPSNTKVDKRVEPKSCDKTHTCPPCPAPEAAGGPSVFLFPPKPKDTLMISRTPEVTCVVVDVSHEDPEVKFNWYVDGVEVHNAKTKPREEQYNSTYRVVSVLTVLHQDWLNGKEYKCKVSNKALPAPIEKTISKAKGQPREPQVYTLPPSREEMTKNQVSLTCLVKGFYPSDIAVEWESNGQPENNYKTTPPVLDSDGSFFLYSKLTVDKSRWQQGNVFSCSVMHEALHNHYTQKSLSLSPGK
light: B1 light
notes: IgG1; Cation exchange fraction, RT 31.7-33.5 min, 2.4% of total CEX area
B11: Spesolimab AP2 fraction (CEX acidic peak fraction AP2) (antibody, human IgG1, kappa, L234A L235A)
heavy: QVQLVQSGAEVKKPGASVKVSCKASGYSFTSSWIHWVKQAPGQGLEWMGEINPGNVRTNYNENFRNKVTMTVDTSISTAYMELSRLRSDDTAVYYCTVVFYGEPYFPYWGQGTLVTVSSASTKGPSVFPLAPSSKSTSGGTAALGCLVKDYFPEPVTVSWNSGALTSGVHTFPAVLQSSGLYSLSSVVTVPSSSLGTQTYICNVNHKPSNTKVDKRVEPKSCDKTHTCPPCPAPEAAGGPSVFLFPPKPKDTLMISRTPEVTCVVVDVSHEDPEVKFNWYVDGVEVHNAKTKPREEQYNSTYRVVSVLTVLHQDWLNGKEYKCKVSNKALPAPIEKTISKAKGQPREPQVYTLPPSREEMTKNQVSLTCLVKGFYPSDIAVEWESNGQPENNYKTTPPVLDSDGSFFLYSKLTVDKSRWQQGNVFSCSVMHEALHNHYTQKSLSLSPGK
light: B1 light
notes: IgG1; Cation exchange fraction, RT 22.7-24.1 min, 2.4% of total CEX area
B12: Spesolimab BP3 fraction (CEX basic peak fraction BP3) (antibody, human IgG1, kappa, L234A L235A)
heavy: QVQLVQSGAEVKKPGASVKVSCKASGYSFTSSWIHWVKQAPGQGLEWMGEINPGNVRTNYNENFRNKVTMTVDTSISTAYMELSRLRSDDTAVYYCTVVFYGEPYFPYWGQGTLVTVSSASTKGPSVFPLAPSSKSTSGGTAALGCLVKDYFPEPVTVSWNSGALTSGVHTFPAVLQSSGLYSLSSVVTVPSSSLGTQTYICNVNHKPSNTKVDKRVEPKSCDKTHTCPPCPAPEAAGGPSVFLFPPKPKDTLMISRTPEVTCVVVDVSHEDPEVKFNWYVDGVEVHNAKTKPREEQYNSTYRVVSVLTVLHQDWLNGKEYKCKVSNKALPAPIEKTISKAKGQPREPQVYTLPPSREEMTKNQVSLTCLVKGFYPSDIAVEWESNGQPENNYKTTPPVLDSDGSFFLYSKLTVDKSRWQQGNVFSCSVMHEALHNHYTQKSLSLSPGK
light: B1 light
notes: IgG1; Cation exchange fraction, RT 33.5-36.2 min, 1.3% of total CEX area; also called most basic fraction BP3

target: T2, FcRn (Homo sapiens (Human), UniProt P55899 24-297; P61769 21-119); test: SPR, FcRn binding
T2 construct: In nature it is a heterodimer of the FcRn alpha chain and beta-2-microglobulin; also called neonatal Fc receptor; copies: 1 + 1

Binding [%] (FcRn binding, SPR)	Binder
69	B1
90	B2
92	B3
95	B4
95	B5
88	B6
84	B7
94	B8
89	B9
91	B10

target: T1, IL-36 receptor (IL-36R); test: cell-based or functional assay

IL36R bioassay Potency [%]	Binder
60	B1
94	B11
102	B2
102	B3
97	B4
110	B5
91	B6
80	B7
91	B8
99	B9
97	B10

target: T3, protein A/G (immobilized on the SPR sensor chip); test: SPR, first step: capture on protein A/G immobilized on the sensor chip
T3 construct: Capture protein in the first step of the IL36R SPR assay; also called protein A/G sensor chip

Recovery [%] (amount of species binding to protein A/G)	Binder
75	B1
70	B12
90	B11
90	B2
93	B3
93	B4
95	B5
88	B6
87	B7
93	B8
92	B9
84	B10

target: T1, IL-36 receptor (IL-36R); test: SPR, second step: IL36R binding activity of the species bound to protein A/G

Potency [%] (IL36R binding, SPR)	Binder
93	B1
100	B12
99	B11
100	B2
99	B3
100	B4
102	B5
98	B6
93	B7
101	B8
100	B9
100	B10
